{"source": "patent US20220096653A1", "about": "“CONJUGATE COMPRISING LIGAND AND CEACAM5 ANTIBODY FAB FRAGMENT” (ASTELLAS PHARMA INC., priority 2019, published 2022)", "key": {"[1]": {"molecular_target": "human cancer-specific MUC1 peptide", "sequence (as listed by the source)": "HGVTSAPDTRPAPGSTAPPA", "test": "ELISA binding activity of anti-human MUC1 antibody Fab^5 fragment conjugates (Example 6-1)", "details": "each conjugate run in duplicate; Table 52; read-out: EC50", "experimental": "(§1) Each anti-human MUC1 antibody Fab^5 fragment conjugate prepared by the method of Example 5 was subjected to ELISA to evaluate the binding activity thereof to human cancer-specific MUC1. In the present test, 20×PBS/Tween 20 Buffer (Thermo Fisher Scientific Inc., 28352) diluted 20-fold with distilled water was used as a wash liquid. In addition, for bovine serum albumin (BSA) used in the present test, 30% Bovine Serum Albumin solution (Sigma-Aldrich, Inc., A9576-50ML) was added in an appropriate proportion for use. A human cancer-specific MUC1 peptide (PTL 1) at 0.5 μmol/L was added to a Nunc MaxiSorp White 384 plate (Nunc, 460372) at 30 μL per well, and the plate was incubated overnight at 4° C. for immobilization. The MUC1 peptide was removed by reverse centrifugation, and then blocking was carried out by adding a PBS/Tween 20 buffer containing 5.0% BSA. Thereafter, the blocking solution was removed by reverse centrifugation, a solution of each anti-human MUC1 antibody Fab^5 fragment conjugate (Ex-No. 104, 108, or 112) described above at about 10000 ng/mL was diluted in 14 steps by 3-fold dilution using a PBS/Tween 20 buffer containing 1.0% BSA, and 30 μL was added per well and incubated at room temperature for 60 minutes. The plate was washed 3 times with a PBS/Tween 20 buffer, and Horseradish Peroxidase-labeled goat anti-human IgK antibody (Southern Biotechnology Associates, Inc.) diluted 10000-fold using a PBS/Tween 20 buffer containing 5.0% BSA was added at 30 μL per well and incubated at room temperature for 30 minutes. The plate was washed 3 times with a PBS/Tween 20 buffer, and ECL Prime Western Blotting DETECTION Reagent (GE Healthcare, RPN2232) as a substrate was added at 30 μL per well. The substrate was incubated at room temperature for 15 minutes, and then a signal value thereof was measured using an Envision counter (PerkinElmer, Inc.).\n(§2) The test for each antibody was carried out in duplicate, and the EC50 value was calculated using a 4-parameter logistic curve model."}, "[2]": {"molecular_target": "human cancer-specific MUC1 peptide (Homo sapiens, UniProt P15941)", "test": "ELISA binding activity of anti-human MUC1 antibody Fab^5 fragment conjugates (Example 6-2)", "details": "each conjugate run in duplicate; Table 54; read-out: EC50", "experimental": "as §1, with “101-113)” for “104, 108, or 112)”\nas §2"}, "[3]": {"design": "species or system mice (BALB/c or BALB/c nu/nu)", "details": "mouse, in vivo", "protocol": "A Gd-labeled conjugate of the conjugate containing a peptide linker produced in one of the above Examples was administered from the tail vein of mice (BALB/c or BALB/c nu/nu) so that the protein mass was 0.02 mg (100 μL) per animal. After about 24 hours, the mice were sacrificed and the kidneys were removed, and the amount of Gd in the kidneys was measured using ICP-MS. The present test was carried out in 3 cases in each group, the mean value of the 3 cases was calculated, and the amount of Gd contained per kidney after administration was shown as a percentage (% of dose/tissue) of the total amount of Gd administered.\nBased on the amount of Gd contained in the kidneys of the control conjugate, the proportion of decrease in the amount of Gd contained in the kidneys of each of the conjugates having a peptide linker was determined."}, "[4]": {"design": "species or system mice (BALB/c nu/nu)", "details": "mouse, in vivo", "protocol": "(§3) A Gd-labeled conjugate of the conjugate containing a peptide linker produced in one of the above Examples was administered from the tail vein of the tumor-bearing mice so that the protein mass was 0.02 mg (100 μL) per animal. As the tumor-bearing mice used in the present Example, mice (BALB/c nu/nu) that were in a tumor-bearing state brought about by transplanting human breast cancer cell line MDA-MB-468 (ATCC(registered trademark); HTB-132) at 5.0×10^6 cells/mouse subcutaneously on the back before administration of the sample were used. 24 hours after administration of the sample, the mice were sacrificed, the kidneys and the tumor were removed, and the amounts of Gd in the kidneys and in the tumor were measured using ICP-MS. The present test was carried out in 3 cases in each group, and the mean value of the 3 cases was calculated. The amount of Gd contained per kidney after administration was shown as a percentage of the amount of Gd administered (% of dose/tissue), and the amount of Gd contained per g of tumor tissue was shown as a percentage of the total amount of Gd administered (% of dose/g)."}, "[5]": {"test_system": "human breast cancer cell line MDA-MB-468", "test": "Amount of tumor accumulation of Gd-labeled Fab^5 conjugates, MDA-MB-468 tumor-bearing mice (Example 8)", "details": "control conjugate Ex-No. 108, mean for 2 runs, 24 hours", "protocol": "as §3"}}, "data": [{"molecule": "Ex-No 108 (conjugate, non-natural residues) heavy: QVQLVQSGAEVKKPGASVKVSCKASGYTFTNYGLSWVRQAPGQGLEWMGENHPGSGIIYHNEKFRGRVTLTADRSTSTAYMELSSLRSEDTAVYYCARSSGTRGFDYWGQGTLVTVSSASTKGPSVFPLAPSSKSTSGGTAALGCLVKDYFPEPVTVSWNSGALTSGVHTFPAVLQSSGLYSLSSVVTVPSSSLGTQTYICNVNHKPSNTKVDKKVEPKSCD light: DVVMTQTPLSLSVTPGQPASISCRSSQSIVHSNGNTYLEWYLQKPGQSPQLLIYRVSNRFSGVPDRFSGSGSGTDFTLKISRVEAEDVGVYYCFQGSHGPWTFGQGTKLEIKRTVAAPSVFIFPPSDEQLKSGTASVVCLLNNFYPREAKVQWKVDNALQSGNSQESVTEQDSKDSTYSLSSTLTLSKADYEKHKVYACEVTHQGLSSPVTKSFNRGEC", "values": [{"measurement": "EC50", "setting": "[1]", "value": 0.07, "unit": "nM"}, {"measurement": "EC50", "setting": "[2]", "value": 0.07, "unit": "nM"}, {"measurement": "Renal residual amount (normal mice) Mean", "setting": "[3]", "value": "33.00 % of dose/tissue"}, {"measurement": "Renal residual amount Mean", "setting": "[4]", "value": "34.67 % of dose/tissue"}, {"measurement": "Amount of tumor accumulation Mean", "setting": "[5]", "value": "0.92 % of dose/g"}]}]}
